Consider nine molecules from patent US20240209099A1 (SUZHOU TRANSCENTA THERAPEUTICS, published 2024).

For assay [1], the target named is T1, Recombinant Human VEGFR2/KDR Protein, His tag (hVEGFR2-his) (human, UniProt P35968 20-764).
T1 construct: Expressed in HEK293, bought from ACRO Biosystems; also called human VEGFR2-his; Human VEGFR2/KDR-His
Description: competition ELISA on coated hVEGFR2-his: hybridoma antibody titrated against 100 ng/ml chimeric 002C, anti-human IgG Fc-HRP.

The target of assay [2] is T1, Recombinant Human VEGFR2/KDR Protein, …. Description: ELISA, hVEGFR2-his coated. As for the experimental part:
Same protocol of Example 2 antibody screening by ELISA assay. Briefly, 0.5 μg/ml hVEGFR2-his was coated and serially diluted purified antibodies would bind to coated antigen. Using HRP conjugated goat anti-mouse Fc antibody could detect binding signals of each antibody.
The hybridoma antibodies have similar affinity to human.

The target in assay [3] is T2, human VEGFR2 on HUVEC cells (human, UniProt P35968 20-1356).
T2 construct: also called hVEGFR2 on HUVEC
Description: flow cytometry on HUVEC cells, percent shifted cells (Shift%), anti-mouse IgG-PE. As for the experimental part:
Log phase HUVEC cells were collected, counted and resuspended in FACS buffer (5% BSA+PBS). 2×10∧5 cells were added to each tube and then washed once with PBS (1500 rpm, 5 mins, RT). Then […] serial diluted VEGFR2 antibodies purified from hybridoma supernatant in FACS buffer were added into corresponding tubes and were incubated at 4° C. for 1 hr. The cells were then washed twice with 1 ml PBS, followed by adding 100 μl/tube of 2nd antibody (1:400 anti-mIgG (H+L)-PE, Cell signaling #8887) in FACS buffer. The cells were incubated at 4° C. for 0.5 hr and then washed twice with PBS, followed by resuspending cells in 600 μl PBS for each sample. The cells were then transferred into FACS tube and the bindings of the antibodies to the cells were detected using flow cytometry (BD Accuri C6) (see FIG. 3).
The percentage of positive binding cells was calculated and fit by Graphpad Prism Software.

The target in assay [4] is T1, Recombinant Human VEGFR2/KDR Protein, …. The assay can be described thus: SPR (Biacore), antibody captured by anti-Fc, antigen 2.5-80 nM. As for the experimental part: A CM5 sensor chip was activated in each flow cell by 7-min injection (10 μl/min) of freshly prepared 1:1 50 mM N-hydroxysuccinimide (NHS): 200 mM 1-ethyl-3-(3-dimethylaminopropyl)-carbodiimide (EDC). Then anti-human Fc antibody (GE Healthcare) in a concentration of 10 μg/ml in 10 mM sodium acetate buffer PH 5.0 was injected onto the activated chip at 10 μl/min (HBS-EP running buffer: 10 mM HEPES, 150 mM NaCl, 3.4 mM EDTA, 0.005% surfactant P20, pH 7.4). The remaining active coupling sites were blocked by 7 min injection of 1M ethanolamine at 10 μl/min. The immobilization level of each flow cell is ˜9000RU. Antibodies were captured in FC2 by anti-human Fc IgG or anti-mouse Fc (GE Healthcare) to 200˜300RU. FC1 was used as the reference cell. Antigen was injected at varying concentrations (2.5 nM, 5 nM, 10 nM, 20 nM, 40 nM and 80 nM) after capture of antibody. The association time for antibody binding antigen is 180s. Surface Regeneration condition is 120s at 10 μl/min in Gly pH1.5. The signals with captured antibody subtracted from those without captured antibody were calculated with Biacore X100 evaluation software ver. 2.0 (Biacore).

The target is the same in assay [5]. Description: competition ELISA: hVEGFR2-his coated (1 ug/ml), antibody titrated, then 0.3 ug/ml hVEGF-A added and bound VEGF-A detected; blocked ligand hVEGF-A. As for the experimental part: High-binding clear polystyrene 96 well plates were coated with 100 μl/well of 1 μg/ml hVEGFR2-his overnight at 4° C. After washing and blocking, serial diluted antibodies (from 10 μg/ml to 0.0006 μg/ml) were added and incubate for 1 hour at RT. 0.3 μg/ml hVEGF-A (Acrobiosystem, Cat #VE5-H4210) were added and incubated for 2 hour at RT. Then 100 μl/well of 0.25 μg/ml Biotinylated Rabbit Anti-human VEGF-A (Peprotech, Cat #400-P10Bt) was then added for detecting bound VEGF-A. Then 100 μl/well of a solution of HRP conjugated Neutravidin antibody (Pierce, Cat #31001) and TMB were added sequentially. Finally, reaction was terminated using 0.64M H₂SO₄ and plates were read at 450 nm.

Assay [6] shares this target. Description: ELISA, hVEGFR2-his coated, anti-human Fc-HRP; antibody made in 293T cells. As for the experimental part: Same protocol of Example 4 except using HRP conjugated goat anti-human Fc antibody as secondary antibody. Binding to hVEGFR2-his and rhesus VEGFR2-his (Acrobiosystems, Cat #VE2-C52H3) were also analyzed head-to-head.
Same protocol of Example 9.

T1 sequence (P35968 other isoform, or with tags, fused parts or gaps): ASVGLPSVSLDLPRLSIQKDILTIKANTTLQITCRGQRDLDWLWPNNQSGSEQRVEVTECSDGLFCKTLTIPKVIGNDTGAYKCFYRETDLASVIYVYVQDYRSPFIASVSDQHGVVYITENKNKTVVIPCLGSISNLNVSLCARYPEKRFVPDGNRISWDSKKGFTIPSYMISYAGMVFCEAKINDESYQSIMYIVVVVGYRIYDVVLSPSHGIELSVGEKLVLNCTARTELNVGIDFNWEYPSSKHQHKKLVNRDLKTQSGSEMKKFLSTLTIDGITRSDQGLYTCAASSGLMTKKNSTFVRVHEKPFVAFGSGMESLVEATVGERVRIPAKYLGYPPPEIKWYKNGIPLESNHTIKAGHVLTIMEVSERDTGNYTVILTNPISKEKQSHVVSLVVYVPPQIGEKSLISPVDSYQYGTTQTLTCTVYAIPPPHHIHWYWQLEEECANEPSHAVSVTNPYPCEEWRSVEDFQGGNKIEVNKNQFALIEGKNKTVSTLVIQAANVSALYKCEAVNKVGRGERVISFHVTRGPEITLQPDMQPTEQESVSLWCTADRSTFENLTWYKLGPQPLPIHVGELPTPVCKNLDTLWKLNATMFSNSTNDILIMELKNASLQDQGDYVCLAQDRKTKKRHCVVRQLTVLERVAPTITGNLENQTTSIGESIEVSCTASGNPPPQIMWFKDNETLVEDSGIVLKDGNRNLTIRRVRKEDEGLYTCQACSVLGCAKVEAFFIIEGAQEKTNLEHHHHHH
T2 sequence (P35968 20-1356 V297I/Q472H limits assumed): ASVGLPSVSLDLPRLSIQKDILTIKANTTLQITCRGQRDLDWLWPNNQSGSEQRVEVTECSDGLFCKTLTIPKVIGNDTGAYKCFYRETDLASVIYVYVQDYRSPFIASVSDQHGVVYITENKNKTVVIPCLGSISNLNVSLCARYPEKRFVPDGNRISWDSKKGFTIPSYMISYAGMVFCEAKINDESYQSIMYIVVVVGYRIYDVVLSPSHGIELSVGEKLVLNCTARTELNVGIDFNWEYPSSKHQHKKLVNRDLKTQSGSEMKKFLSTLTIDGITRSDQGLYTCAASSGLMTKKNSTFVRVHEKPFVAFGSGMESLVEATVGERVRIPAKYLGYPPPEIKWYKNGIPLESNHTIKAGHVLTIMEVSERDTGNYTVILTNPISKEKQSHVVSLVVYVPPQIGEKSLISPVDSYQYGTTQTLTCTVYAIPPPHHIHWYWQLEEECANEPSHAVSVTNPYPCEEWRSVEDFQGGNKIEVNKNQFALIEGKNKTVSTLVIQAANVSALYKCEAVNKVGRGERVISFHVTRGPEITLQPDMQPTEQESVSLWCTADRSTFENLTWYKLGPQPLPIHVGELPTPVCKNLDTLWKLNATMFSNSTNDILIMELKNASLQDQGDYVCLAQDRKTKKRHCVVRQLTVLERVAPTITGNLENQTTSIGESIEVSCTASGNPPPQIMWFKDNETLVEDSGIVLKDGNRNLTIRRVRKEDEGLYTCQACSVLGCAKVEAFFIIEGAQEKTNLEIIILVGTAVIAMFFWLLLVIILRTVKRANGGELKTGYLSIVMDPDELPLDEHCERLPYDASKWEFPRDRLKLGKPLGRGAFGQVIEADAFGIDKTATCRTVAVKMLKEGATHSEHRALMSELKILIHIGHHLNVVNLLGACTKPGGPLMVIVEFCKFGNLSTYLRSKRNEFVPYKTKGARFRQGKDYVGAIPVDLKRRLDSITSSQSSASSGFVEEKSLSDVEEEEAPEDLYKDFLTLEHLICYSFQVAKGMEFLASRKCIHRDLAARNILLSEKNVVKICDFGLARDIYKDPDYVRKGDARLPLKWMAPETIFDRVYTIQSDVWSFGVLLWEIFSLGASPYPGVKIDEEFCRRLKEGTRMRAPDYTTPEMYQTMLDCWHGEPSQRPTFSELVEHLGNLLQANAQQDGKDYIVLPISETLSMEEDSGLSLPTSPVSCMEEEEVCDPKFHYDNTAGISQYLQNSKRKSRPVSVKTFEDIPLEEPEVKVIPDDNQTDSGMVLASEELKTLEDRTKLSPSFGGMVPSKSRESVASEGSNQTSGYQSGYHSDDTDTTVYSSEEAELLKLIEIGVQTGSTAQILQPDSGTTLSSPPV

B1: 042 (mouse hybridoma antibody) (antibody, V domains shown)
VH: EVQLVESGGDLVKPGGSLKLSCTASGFSFSIYGMSWVRQTPDKRLEWVASISVGGSYTYYADSVEGRFTISRENAKNTLYLQMNSLKSEDTALYYCARELDGNYDYWGQGTSLTVSS
VL: DIVITQNELSNPVTFGESVSISCRSSKSLLYKDGKTYLNWFLQRPGQSPQLLIYLMSTRASGVSDRFSGSGSGTDFTLEISRVKAEDVGVYYCQQLVEYPFTFGSGTKLEIK
notes: Mouse antibody purified from hybridoma; also called mAb042; 8G11G1B2C6
With B1, the “IC50 (read off the curve)” value in assay [1] is approximately 0.1 µg/mL. In assay [2], the EC50 is 0.0224 µg/mL. In assay [3], the half-maximal effective concentration (EC50) turned out to be 0.052 µg/mL. Moreover, in assay [4], the dissociation constant Kd worked out at 0.573 nM, the koff worked out at 4.88e-05 s⁻¹ and the kon came out at 85100 M⁻¹ s⁻¹. The IC50 in assay [5] amounted to 0.0629 µg/mL.

B2: 54-H1L2 (humanized Mab54) (antibody, human IgG1, V domains shown)
VH: EVQLVESGGGLVKPGGSLKLSCAASGFTFSMYGMSWVRQTPGKRLEWVASISIGGSYTYYADSVKGRFTISRDNAKNTLYLQMNSLKAEDTAVYYCARELDGNYDYWGQGTTLTVSS
VL: DIVITQTPLSLPVTPGESVSISCRSSKSLLYKDGKTYLNWFLQRPGQSPQLLIYLMSTRASGVPDRFSGSGSGTDFTLKISRVEAEDVGVYYCQQLVEYPFTFGSGTKLEIK
notes: also called humanized 54 variant H1L2
As to B2, the EC50 in assay [6] came out at 0.0706 µg/mL. Moreover, in assay [4], the dissociation constant Kd stood at 3.68 nM, the koff was 0.000139 s⁻¹ and the kon was 37700 M⁻¹ s⁻¹.

B3: 48-H3L2 (antibody, V domains shown)
VH: EVQLVESGGGLVKPGGSLRLSCAASGFTFSMYGMSWVRQAPGKRLEWVASISIGGSYTYYADSVKGRFTISRDNAKNTLYLQMNSLRAEDTAVYYCAREMDGNYDYWGHGTTLTVSS
VL: DIVITQTPLSLPVTPGESVSISCRSSKSLLYKDGKTYLNWFLQRPGQSPQLLIYLMSTRASGVPDRFSGSGSGTDFTLKISRVEAEDVGVYYCQQLVEYPFTFGSGTKLEIK
notes: also called humanized Mab48 variant H3L2
B3: the EC50 in assay [6] was 0.0171 µg/mL.

B4: 54-H2L2 (humanized Mab54) (antibody, human IgG1, V domains shown)
VH: EVQLVESGGGLVKPGGSLRLSCAASGFTFSMYGMSWVRQAPGKRLEWVASISIGGSYTYYADSVKGRFTISRDNAKNTLYLQMNSLRAEDTAVYYCARELDGNYDYWGQGTTLTVSS
VL: DIVITQTPLSLPVTPGESVSISCRSSKSLLYKDGKTYLNWFLQRPGQSPQLLIYLMSTRASGVPDRFSGSGSGTDFTLKISRVEAEDVGVYYCQQLVEYPFTFGSGTKLEIK
notes: also called humanized 54 variant H2L2
Take B4: the EC50 in assay [6] worked out at 0.0442 µg/mL. For the same molecule, in assay [4], the Kd was 4.3 nM, the koff worked out at 0.000128 s⁻¹ and the kon stood at 29700 M⁻¹ s⁻¹.

B5: 54-H1L1 (humanized Mab54) (antibody, human IgG1, V domains shown)
VH: EVQLVESGGGLVKPGGSLKLSCAASGFTFSMYGMSWVRQTPGKRLEWVASISIGGSYTYYADSVKGRFTISRDNAKNTLYLQMNSLKAEDTAVYYCARELDGNYDYWGQGTTLTVSS
VL: DIVITQDELSLPVTFGESVSISCRSSKSLLYKDGKTYLNWFLQRPGQSPQLLIYLMSTRASGVSDRFSGSGSGTDFTLKISRVEAEDVGIYYCQQLVEYPFTFGSGTKLEIK
notes: also called humanized 54 variant H1L1
Consider B5, for which the EC50 in assay [6] was determined as 0.0221 µg/mL. For the same molecule, in assay [4], the equilibrium dissociation constant (Kd) is 1.14 nM, the koff was determined as 5.15e-05 s⁻¹ and the on-rate constant (kon) was found to be 45100 M⁻¹ s⁻¹.

B6: 002 (mouse hybridoma antibody) (antibody, V domains shown)
VH: QVQLQQSGPELVKPGASVKISCKASGYAFSSSWMNWVKQRPGEGLEWIGRIFPGDGDTYYNGKFQVKATLTADKSSSTAYMQLSSLTSEDSAVYFCAIFLDTSGRYVDYWGQGTTLTISS
VL: DIVMTQSHKFMSTSVGDRVSITCKASQDVNTAVAWYQQKPGQSPKLLIYSASYRYIGVPDRFTGSGSGTDFTFTISSVQSEDLTVYYCQQHYRAPLTFGSGTKLELK
notes: Mouse antibody purified from hybridoma; also called mAb002; 11B8
On to B6, for which, in assay [1], the “IC50 (read off the curve)” value is approximately 0.2 µg/mL. For the same molecule, the EC50 in assay [2] was found to be 0.0168 µg/mL. The EC50 in assay [3] was determined as 0.0462 µg/mL. In assay [4], the Kd was 5.98 nM, the koff turned out to be 0.000336 s⁻¹ and the on-rate constant (kon) is 56200 M⁻¹ s⁻¹. The IC50 in assay [5] is 0.0434 µg/mL.

B7: 018 (mouse hybridoma antibody) (antibody, V domains shown)
VH: EVKLVESGGGLVQPGGSLSLSCAVSGFTFTDYYMSWVRQPPGKALEWLGFIRNKANGYTTEYSASVKGRFTISRDNSQSILYLQMNALRAEDSATYYCARFDYYGSTYCFDYWGQGTTLTVSS
VL: DIVLTQSPASLAVSLGQRATISCRASQSVSTSSSSFMHWYQQKPGQPPKLLIKYASNLESGVPARFSGSGSGTDFTLNIHPVEEEDTATYYCQHTWEIPLTFGAGTKLELK
notes: Mouse antibody purified from hybridoma; also called mAb018; 16D9G2E8
Consider B7, for which the EC50 in assay [2] was 0.0129 µg/mL. Besides, in assay [4], the Kd amounted to 5.11 nM, the koff was found to be 0.000452 s⁻¹ and the kon was 88400 M⁻¹ s⁻¹.

B8: 003 (mouse hybridoma antibody) (antibody, V domains shown)
VH: QVQLQQPGAELVKPGASVKMSCKASGYTFNTYWIMWVKQRPGQGLEWIGDIYPGTGSTNYNEKFKSKVTLTADTSSTTAYMQVSSLTSEDSAVYYCGRDSNPDYWGQGTTLTVSS
VL: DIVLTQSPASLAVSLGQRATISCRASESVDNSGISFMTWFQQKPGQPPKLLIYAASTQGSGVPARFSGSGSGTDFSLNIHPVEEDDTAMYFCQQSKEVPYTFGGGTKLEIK
notes: Mouse antibody purified from hybridoma; also called mAb003; 21B4
B8: the half-maximal effective concentration (EC50) in assay [2] is 0.00769 µg/mL. Further, in assay [4], the Kd worked out at 0.235 nM, the koff was found to be 2.95e-05 s⁻¹ and the kon came out at 126000 M⁻¹ s⁻¹.

B9: 006 (mouse hybridoma antibody) (antibody, V domains shown)
VH: QAQLQQPGAELVKPGTSVKMSCKASGYTFNSYWIMWVKQSPGQGLEWIGDIYPGSGSTNYNEKFKSKVTLTVDTSSSTAYMQVSSLTSEDSAVYYCARDSNPDYWGQGTTLTVSS
VL: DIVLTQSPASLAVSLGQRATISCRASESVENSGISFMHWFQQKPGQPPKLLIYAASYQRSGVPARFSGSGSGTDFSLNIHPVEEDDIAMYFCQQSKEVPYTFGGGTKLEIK
notes: Mouse antibody purified from hybridoma; also called mAb006; 27E8A9D5
Consider B9, for which the EC50 in assay [2] was determined as 0.0135 µg/mL. Further, in assay [4], the Kd was determined as 1.47 nM, the koff was 0.000186 s⁻¹ and the on-rate constant (kon) is 127000 M⁻¹ s⁻¹.
